# Measured values: US20230365705A1 (DYNAMICURE BIOTECHNOLOGY, published 2023)
# T1: Human CD93 recombinant protein (Sino Biological Inc, Catalog #12589-H08H) (human, UniProt Q9NPY3 22-580)
# T1 construct: Biotinylated (EZ-LINK NHS-PEG4 biotin) in the BLI assays; also called hCD93; His-tagged human CD93
# T1 sequence (looked up): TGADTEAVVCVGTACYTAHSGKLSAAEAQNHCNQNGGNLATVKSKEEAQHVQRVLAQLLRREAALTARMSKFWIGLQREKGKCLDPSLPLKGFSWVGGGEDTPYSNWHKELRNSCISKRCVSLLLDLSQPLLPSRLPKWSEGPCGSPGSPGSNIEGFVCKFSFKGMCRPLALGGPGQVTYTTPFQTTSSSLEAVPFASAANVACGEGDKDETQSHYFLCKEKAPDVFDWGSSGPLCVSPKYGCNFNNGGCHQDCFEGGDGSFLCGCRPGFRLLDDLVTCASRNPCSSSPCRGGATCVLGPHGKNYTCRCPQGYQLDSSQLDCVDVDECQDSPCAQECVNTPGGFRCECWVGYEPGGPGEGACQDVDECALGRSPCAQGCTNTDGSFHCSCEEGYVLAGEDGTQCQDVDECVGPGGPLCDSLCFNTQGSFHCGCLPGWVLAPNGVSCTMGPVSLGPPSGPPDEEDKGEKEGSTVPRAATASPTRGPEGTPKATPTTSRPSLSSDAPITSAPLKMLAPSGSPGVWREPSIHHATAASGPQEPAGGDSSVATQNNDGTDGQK
# T2: Human CD93 on cells (human CD93 expressing CHO cells; HUVEC, U937 and KG1a cells) (human, UniProt Q9NPY3 22-652)
# T2 construct: whole, on cells; also called hCD93 expressing CHO cells; hCD93 CHO cells
# T2 sequence (looked up): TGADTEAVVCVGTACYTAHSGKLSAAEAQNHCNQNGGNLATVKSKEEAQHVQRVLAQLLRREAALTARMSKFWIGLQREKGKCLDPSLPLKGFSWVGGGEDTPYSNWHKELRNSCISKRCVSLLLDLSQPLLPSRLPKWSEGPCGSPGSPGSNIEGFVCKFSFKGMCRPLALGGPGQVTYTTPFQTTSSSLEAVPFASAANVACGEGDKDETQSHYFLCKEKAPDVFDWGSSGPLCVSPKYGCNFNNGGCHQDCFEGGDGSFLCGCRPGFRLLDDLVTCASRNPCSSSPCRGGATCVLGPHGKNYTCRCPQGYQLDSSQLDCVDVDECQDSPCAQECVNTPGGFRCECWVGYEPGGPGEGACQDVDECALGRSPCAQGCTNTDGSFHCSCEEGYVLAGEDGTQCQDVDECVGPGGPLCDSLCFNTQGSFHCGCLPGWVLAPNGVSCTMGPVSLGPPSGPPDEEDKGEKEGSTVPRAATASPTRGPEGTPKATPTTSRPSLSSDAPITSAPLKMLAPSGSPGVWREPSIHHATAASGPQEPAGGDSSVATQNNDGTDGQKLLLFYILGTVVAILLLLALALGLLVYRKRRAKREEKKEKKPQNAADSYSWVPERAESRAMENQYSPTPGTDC
# T3: Mouse CD93 on cells (mouse CD93 expressing CHO cells; mouse CD93 expressing HEK cells) (mouse, UniProt O89103 23-644)
# T3 construct: whole, on cells; also called mCD93 HEK; CD93-HEK cells
# T3 sequence (looked up): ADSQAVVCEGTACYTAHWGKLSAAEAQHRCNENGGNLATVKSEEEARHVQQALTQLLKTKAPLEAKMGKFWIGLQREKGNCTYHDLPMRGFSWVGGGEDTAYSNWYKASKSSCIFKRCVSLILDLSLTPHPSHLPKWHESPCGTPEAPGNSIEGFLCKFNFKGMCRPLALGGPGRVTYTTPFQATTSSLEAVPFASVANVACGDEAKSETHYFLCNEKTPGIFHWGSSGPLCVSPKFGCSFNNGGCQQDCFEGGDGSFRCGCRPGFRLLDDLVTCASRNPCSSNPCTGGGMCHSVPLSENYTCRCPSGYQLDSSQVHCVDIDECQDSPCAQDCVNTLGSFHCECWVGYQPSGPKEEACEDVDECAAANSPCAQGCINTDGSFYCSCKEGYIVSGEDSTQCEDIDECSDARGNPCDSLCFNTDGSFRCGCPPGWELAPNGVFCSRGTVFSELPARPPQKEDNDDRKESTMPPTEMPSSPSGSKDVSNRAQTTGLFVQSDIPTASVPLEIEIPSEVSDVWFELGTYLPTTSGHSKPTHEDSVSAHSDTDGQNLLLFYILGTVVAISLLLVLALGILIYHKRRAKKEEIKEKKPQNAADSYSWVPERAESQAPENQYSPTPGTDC
# B1: 7F3 (hybridoma) (antibody, IgG1, V domains shown)
# VH: QVQLQQSGADLVRPGASVKLSCKASGYTFTDYEMHWVKQTPVYGLEWIGGIDPETGDTAYNQNFKGKATLTADKSSSAAYMELRSLTSEDSAVYYCTNYGNLYYYAMDYWGQGTSVTVSS
# VL: ENVLTQSPAIMSASPGEKVTMTCRASSSVSSSYLHWYQQKSGASPKLWIYSTSNLAFGVPARFSGSGSGTSYSLTISSVEAEDAATYYCQQYSGYPLTFGSGTKLEIK
# notes: also called 7F3 mAb; 7F3 mIgG1
# B2: Recombinant parental 17B10 with a human CH1 domain and mouse IgG1 CH2 and CH3 Fc domains (antibody, V domains shown)
# VH: QVQLQQSGPELVKPGASVKISCKASGYAFSSYWLNWVKQRPGKGLEWFGRIYPGDGDTDYNGKFKGKATLTADKSSSTAYMQLRSLTSEDSAVYFCVRGDGYWAMDYWGQGTSVTVSS
# VL: DIVMTQAAFSNPVTLGTSASISCRFSKSLLHSNGITYLYWYLQKPGQSPQLLIYQMSNLASGVPDRFSSSGSGTDFTLRISRVEAEDVGVYYCAQNLELPWTFGGGTKLEIK
# Experiments:
# [1] = biological target: T1, Human CD93 recombinant protein (Sino …); test: ELISA, hCD93-His coated, OD450
# Protocol: His-tagged human CD93 was coated onto a 96 well plate at 1 μg/mL in 1×PBS overnight at 4° C. The plate was washed with ELISA wash buffer (Boston BioProduct, Inc.) and the wells were blocked with ELISA blocking buffer for 1 hour at 37° C. Purified antibodies were serially diluted in ELISA blocking buffer (Boston BioProduct, Inc.) and incubated on the receptor for 1 hour at 37° C. The plate was washed with ELISA wash Buffer. […] The plate was washed with ELISA wash buffer. HRP substrate was added for indirect detection of the antibodies binding to CD93.
# [2] = biological target: T1, Human CD93 recombinant protein (Sino …); test: summary table, column ELISA (hCD93)
# [3] = biological target: T1, Human CD93 recombinant protein (Sino …); test: summary table, column Octet (hCD93)
# [4] = biological target: T2, Human CD93 on cells (human CD93 …); test: flow cytometry, CHO-hCD93 cells, APC-A
# [5] = biological target: T2, Human CD93 on cells (human CD93 …); test: summary table, column FACS (HUVEC cells)
# [6] = biological target: T2, Human CD93 on cells (human CD93 …); test: summary table, column FACS (CHO-hCD93 cells)
# [7] = biological target: T3, Mouse CD93 on cells (mouse CD93 …); test: summary table; method and form of mouse CD93 not given
# [8] = biological target: T1, Human CD93 recombinant protein (Sino …); test: BLI (Octet), human CD93; sheet prints Anti-Penta-HIS(HIS1K) biosensor
# [9] = biological target: T2, Human CD93 on cells (human CD93 …); test: flow cytometry blocking assay, CHO-hCD93 cells, antibody 50 ug/ml then MMRN2 0.5 ug/ml, APC-A
# Protocol: (§1) After incubation, the cells were washed with FACS buffer and incubated with anti-His conjugated APC or streptavidin conjugated APC at a ratio of 1:500 for 30 minutes at 4° C. After washing with FACS buffer twice, the samples were analyzed and data acquired in NovoCyte Flow.
# [10] = biological target: T2, Human CD93 on cells (human CD93 …); test: flow cytometry blocking assay, CHO-hCD93 cells, antibody 50 ug/ml then MMRN2 0.1 ug/ml, APC-A
# Protocol: as §1
# [11] = biological target: T2, Human CD93 on cells (human CD93 …); test: flow cytometry, CHO cells overexpressing human CD93, antibody 0.01ug, mIgG1 as control, APC-A
# [12] = biological target: T2, Human CD93 on cells (human CD93 …); test: flow cytometry titration on human CD93 CHO cells; column head printed kd, unit from the axis log (concentration (M))
# Protocol: Cells were quenched with media then counted. Cells were resuspended in FACS buffer (ice cold PBS with 0.5% BSA) and human serum was added to 20% (10% final volume) and put on ice for approximately 20 minutes. 5×10⁴ cells were seeded per well in 100 μL and incubated with serial diluted anti-CD93 antibodies in 100 μL on ice for 2 hours. Samples were then washed by spinning samples at 1200 rpm for 5 minutes. Media was discarded and cells were resuspended in 200 μL ice cold FACS buffer. Cells were washed again and resuspended in 100 μL of secondary Antibody, AlexaFluor647 conjugated anti-human IgG or anti-mouse IgG antibodies (Jackson ImmunoResearch), diluted 1:500 in FACS buffer. Plates were covered with foil to protect from like and incubated for 1 hour on ice. Cells were washed again resuspended in 200 μL ice cold FACS buffer. Cells were washed again and were resuspended in 200 μL fixing solution (PBS with 1% formaldehyde). Samples were stored at 4° C. covered in foil, then were acquired in NovoCyte Flow Cytometer and analyzed by NovoExpress software.
# [13] = biological target: T2, Human CD93 on cells (human CD93 …); test: flow cytometry titration on U937 cells -human serum; column head printed kd, unit from the axis log (concentration (M))
# Protocol: Cells were quenched with media then counted. Cells were resuspended in FACS buffer (ice cold PBS with 0.5% BSA) and put on ice ˜20 min. 5×10⁴ cells were seeded per well in 100 μL and incubated with serial diluted anti-CD93 antibodies in 100 μL on ice for 2 hours. Samples were then washed by spinning samples at 1200 rpm for 5 minutes. Media was discarded and cells were resuspended in 200 μL ice cold FACS buffer. Cells were washed again and resuspended in 100 μL of secondary Antibody, AlexaFluor647 conjugated anti-human IgG or anti-mouse IgG antibodies (Jackson ImmunoResearch), diluted 1:500 in FACS buffer. Plates were covered with foil to protect from light and were incubated for 1 hour on ice. Samples were then washed again and resuspended in 200 μL ice cold FACS buffer. Cells were washed again and resuspended in 200 μL fixing solution (PBS with 1% formaldehyde). Samples were stored at 4° C. covered in foil, ands were subsequently acquired in NovoCyte Flow Cytometer and analyzed by NovoExpress software.
# [14] = biological target: T2, Human CD93 on cells (human CD93 …); test: flow cytometry titration on HUVEC cells +human serum; column head printed kd, unit from the axis log (concentration (M))
# Protocol: (§2) Recombinant parental anti-CD93 antibodies were evaluated for their ability to bind to HUVEC cells in the presence or absence of human serum. […] Antibodies were purified using Protein G Sepharose. The resulting antibodies were tested for its binding capacity to a variety of cells that express CD93. […] Cells were quenched with media then counted. Cells were resuspended in FACS buffer (ice cold PBS with 0.5% BSA) and human serum was added to 20% (10% final volume) and put on ice for approximately 20 minutes. 5×10⁴ cells were seeded per well in 100 μL media and incubated with serial diluted anti-CD93 antibodies in 100 μL on ice for 2 hours. Cells were then washed by spinning cells at 1200 rpm for 5 min. Media was discarded and cells were resuspended in 200 μL ice cold FACS buffer. The wash step was repeated and cells were resuspended in 100 μL of secondary antibody, AlexaFluor647 conjugated anti-human IgG or anti-mouse IgG antibodies (Jackson ImmunoResearch), diluted 1:500 in FACS buffer. Plates were blocked from light and incubated 1 hour at 4° C. Cells were then washed again then were resuspended in 200 μL ice cold FACS buffer. Cells were washed again and resuspended in 200 μL fixing solution (PBS with 1% formaldehyde). Samples were stored at 4° C. covered in foil, then were acquired in NovoCyte Flow Cytometer and analyzed by NovoExpress software.
# [15] = biological target: T2, Human CD93 on cells (human CD93 …); test: flow cytometry titration on HUVEC cells -human serum; column head printed kd, unit from the axis log (concentration (M))
# Protocol: as §2
Binder,EC50 [1] [nM],EC50 [2] [nM],Kd [3] [nM],"M3 gate, % of cells [4] [%]",EC50 [5] [nM],EC50 [6] [nM],binding result [7],Kd [8] [nM],koff [8] [s⁻¹],kon [8] [M⁻¹ s⁻¹],"M3 gate, % of cells positive for MMRN2 after the antibody [9] [%]","M3 gate, % of cells positive for MMRN2 after the antibody [10] [%]","M2 gate, % of cells [11] [%]",Kd [12] [nM],Kd [13] [nM],Kd [14] [nM],Kd [15] [nM]
B1,0.0667,0.0667,0.493,96.3,2.94,0.21,no binding,1.26,0.000478,381000,9.93,12.2,–,–,–,–,–
B2,–,–,–,–,–,–,–,–,–,–,–,–,98.4,0.163,0.0666,0.196,0.111
